The supplement of paper PMC10567573
± gives the standard deviation.

Experiment: protein stability index of a GFP-peptide fusion (GPS, HEK-293T) (PSI 1-6); higher = more stable
Conditions: c terminus: a fixed tail appended
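Also: 24-mer peptide tiles fused after GFP, lentivirally expressed, FACS-sorted into six equal bins by GFP/DsRed ratio, decoded by Illumina sequencing, PSI is the read-weighted mean bin number.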

Row | Sequence | protein stability index (treatment: DMSO) | protein stability index (treatment: MLN4924 1 uM, 8 h)
1 | TSTFEATSEGTLELQQRNPKAERL [ZNF232] | 5.2 ± 0.2 | 5.42 ± 0.14
2 | TSTRYEQPKCDNTARAHPAKARDL [SMOC2] | 4.85 ± 0.19 | 5.17 ± 0.27
3 | TSTSSSITSSIPDTERLDDFHLSI [DVL3] | 3.84 ± 0.27 | 3.96 ± 0.23
4 | TTTDHSSNPGPVPGSSSGPVLGSS [SPAG8] | 5.08 ± 0.16 | 5.13 ± 0.09
5 | TVDGLHFNSTYNARVKAFNKTGVS [TRIM9] | 3.17 ± 0.19 | 3.46 ± 0.086
6 | TVDKQNISLWPREPPPKSGPSLVP [CD207] | 3.84 ± 0.21 | 3.73 ± 0.082
7 | TVGFLDEAIQPYRDRLRSRLEALS [TRIM15] | 2.66 ± 0.27 | 2.77 ± 0.39
8 | TVRAMTHVINQGMAMYWGTSRWSS [KCNAB2] | 2.91 ± 0.42 | 2.75 ± 0.51
9 | TYIPENNARGASIFSVTALDPDSK [PCDHGA10] | 4.49 ± 0.17 | 4.62 ± 0.15
10 | TYTHGLGLHRRPGAGHCSASPGPA | 3.42 ± 0.24 | 3.48 ± 0.24
11 | VAGGLVACRVTELQQQPLCTSVNT [LRRC59] | 2.39 ± 0.5 | 2.59 ± 0.18
12 | VAGSLAGAIAQSSIYPMEVLKTRM [SLC25A25] | 2.56 ± 0.11 | 2.54 ± 0.32
13 | VAGTMESPFSPGLFHRLDEDWDSA [ATF6] | 4.38 ± 0.11 | 4.32 ± 0.2
14 | VAKRKSSMPQKFLGDKGLSDTPYD [IKZF1] | 4.22 ± 0.1 | 4.38 ± 0.16
15 | VARVLRGCLENMPEADCIPKEQLS [PLK2] | 3.42 ± 0.26 | 3.62 ± 0.13
16 | VASMVLGECRQMSSSSQIGNDSFQ [CLCN6] | 2.87 ± 0.32 | 2.67 ± 0.27
17 | VCAICQINLEGKTFYSKKDRPLCK [PDLIM7] | 2.1 ± 0.44 | 2.42 ± 0.5
18 | VDIVTGHARLSDIWAKTPPITRKA [DHCR7] | 3.26 ± 0.093 | 3.38 ± 0.16
19 | VDNARIVLQIDNARLAADDFRVKY [KRT18] | 2.58 ± 0.31 | 2.77 ± 0.21
20 | VDSEQLRRDCDALMAGCIQEARER [CDKN1A] | 4.82 ± 0.15 | 4.7 ± 0.28
21 | VEEVDMAEEFEQPTLSCEKYLTYD [ELOA2] | 5.09 ± 0.32 | 5.19 ± 0.39
22 | VELIPEKKGLFLKHVEYEVSSQRF [SNX8] | 2.31 ± 0.27 | 2.46 ± 0.19
23 | VELVNAACNFEPHESFFSLFSDPR [ZER1] | 2.45 ± 0.13 | 2.54 ± 0.2

Row | Sequence | protein stability index (treatment: DMSO) | protein stability index (treatment: MLN4924 1 uM, 8 h)
24 | VENECYQVFLDRINRADYCPECYP [TOR1AIP2] | 2.43 ± 0.42 | 2.62 ± 0.27
25 | VERYHNLCQKQVKAQLPRRESERR [FBXO28] | 4.08 ± 0.31 | 3.99 ± 0.08
26 | VEVMDETNCQKVLNMWCCCFFKRR [CSNK1G3] | 3.21 ± 0.38 | 3.15 ± 0.39
27 | VEYKDIASIHWDWKIALLFVAFAL [SLC35F2] | 2.81 ± 0.8 | 2.74 ± 0.32
28 | VFMEFGPPNQQMSPSPMSHGHYSM [DLX1] | 2.21 ± 0.1 | 2.24 ± 0.23
29 | VGDLMSPFDQSGLGAEESLGLLDD [ATF4] | 5.17 ± 0.27 | 4.89 ± 0.28
30 | VGGATPDQTTSEETVGGAILDQTT [HDAC6] | 5.48 ± 0.49 | 5.43 ± 0.35
31 | VGKTRLICARACNTTLTQYQLLAT [RHOBTB1] | 2.18 ± 0.35 | 2.21 ± 0.12
32 | VGRTEPELLVAHAYTRYLGDLSGG [HMOX1] | 2.68 ± 0.16 | 2.48 ± 0.08
33 | VHPFVNYNSSRFGEGVERELFVRE [MYORG] | 3.09 ± 0.18 | 3 ± 0.37
34 | VILLPYVSKVTGWCRDRLLGHREP [TMEM175] | 2.28 ± 0.3 | 2.04 ± 0.36
35 | VIVQIKQPRKKYVQRKSDFDQTVF [NETO1] | 2.09 ± 0.3 | 2.09 ± 0.076
36 | VKHQCCPGCGYFCTAGNFMECQPE [EHMT1] | 3.31 ± 0.19 | 3.31 ± 0.5
37 | VKNSNRYDVEMTDELVGLPFSSHT [FBXO34] | 3.8 ± 0.25 | 4 ± 0.12
38 | VKRKIRDESLCPQHHEALSLFCYE [TRIM39] | 2.38 ± 0.11 | 2.73 ± 0.3
39 | VKVPGIVRLRTLLCKVLGVLFSVA [CLCN6] | 2.21 ± 0.32 | 2.19 ± 0.29
40 | VLALADEAGYYFFNGNYKVDSPKN [ADAMTSL2] | 2.7 ± 0.23 | 2.86 ± 0.3
41 | VLCPECENPETDLHVNPKKQTIGN [EIF5] | 4.3 ± 0.3 | 4.54 ± 0.15
42 | VLMKGQHLHLETFKAVLDGLDVLL [PRAME] | 2.26 ± 0.38 | 2.17 ± 0.1
43 | VNPLHVDSTWLLLRRIRAESGTKG [SLC25A39] | 2.83 ± 0.3 | 2.74 ± 0.33
44 | VPAGEEEGELGEYRQKLLMFLEIS [VPS39] | 3.39 ± 0.16 | 3.68 ± 0.22
45 | VPGEFKQDVTVVGSAGRLLAVGTD [GFOD1] | 4.1 ± 0.29 | 3.69 ± 0.17
46 | VQKLVKVCTDTDRWSLISLSNKNG [TENT5C] | 2.64 ± 0.034 | 2.85 ± 0.26

Row | Sequence | protein stability index (treatment: DMSO) | protein stability index (treatment: MLN4924 1 uM, 8 h)
47 | VQRHNSFSPNSPQFNVSGPGLLEE [NECAB1] | 4.03 ± 0.21 | 4.33 ± 0.32
48 | VRQLERENAELESRIQEWYEFQIP [KRT36] | 3.41 ± 0.16 | 3.43 ± 0.42
49 | VSAATQLRHFFLVEDLVDSLKLAL [RTN2] | 2.56 ± 0.72 | 2.49 ± 0.47
50 | VSCFLTFNIFDWLGRSLTAVFMWP [SLC29A1] | 3.03 ± 0.07 | 3.502 ± 0.017
51 | VSDPQHAARLLRALSSFREESRFC [GAN] | 2.59 ± 0.068 | 2.72 ± 0.19
52 | VSQWYELVVFTASMEIYGSAVADK [CTDNEP1] | 3.26 ± 0.36 | 3.17 ± 0.48
53 | VTPFDHNIVNLLTTCSTPLLNSPP [AUP1] | 2.42 ± 0.12 | 2.48 ± 0.39
54 | VTVPSMLSRLLSRKRAVPCGACLT [OR3A1] | 2.39 ± 0.38 | 2.25 ± 0.29
55 | VTVTDVDIVFSKIKGKSCRTITFE [TPPP] | 2.23 ± 0.24 | 2.1 ± 0.28
56 | VVIRDIDERAMELLIDFAYTSQIT [KLHL20] | 3.19 ± 0.55 | 2.67 ± 0.57
57 | VVYVKHQAQIDQYLGLVRTHINAV [RTN1] | 2.22 ± 0.82 | 2.52 ± 0.48
58 | VWKYFGFDTNAEGCILQWKKIYCR [ZBED1] | 2.37 ± 0.56 | 2.2 ± 0.41
59 | WAIPNRQINDGMGGDGDDMEIFME [BEX3] | 4.31 ± 0.3 | 4.22 ± 0.26
60 | WFQNKRSKFKKLMKQGGAALEGSA [DLX1] | 2.62 ± 0.4 | 3.01 ± 0.36
61 | WGCDLGVVTRVVTGVYPRCLHASQ [BRF1] | 2.89 ± 0.8 | 2.3 ± 0.46
62 | WGDLLGEDSLAALSSVPSEAQISD [SNAP91] | 4.76 ± 0.3 | 4.71 ± 0.22
63 | WGLDQEQVFSLGDGVSGGFFGIRD [ZBED1] | 2.91 ± 0.6 | 3.17 ± 0.3
64 | WGRLLEQVGTMALWASQREKEVLR [ZBED2] | 2.18 ± 0.16 | 2.36 ± 0.23
65 | WHEIRQGRLPRIPQVLSQEFTELL [WEE1] | 2.42 ± 0.22 | 2.38 ± 0.23
66 | WIGLFLVATGSQQSLAQPLPGNTT | 2.93 ± 0.55 | 2.96 ± 0.35
67 | WKVLTWLRYTLWIPLYPLGCLAEA [HACD3] | 2.78 ± 0.74 | 2.55 ± 0.54
68 | WNNVGLLGGRALMNCLPSNRTLWR [LRRC45] | 2.23 ± 0.31 | 2.24 ± 0.45
69 | WRERAVEKRERALEEVERAILEMK [ZBED2] | 4.2 ± 0.14 | 4.29 ± 0.44

Row | Sequence | protein stability index (treatment: DMSO) | protein stability index (treatment: MLN4924 1 uM, 8 h)
70 | WRLLNPGEYVVTAKAEGFTASTKN [CPXM2] | 3.09 ± 0.43 | 3.03 ± 0.29
71 | YDPTYKDKEGPSPKVEYVWRNIIL [SCD] | 2.11 ± 0.47 | 2.37 ± 0.23
72 | YECTVCKKRFTRRSHLIGHQRTHS [ZNF449] | 4.86 ± 0.39 | 5.05 ± 0.24
73 | YEKAYEGGSELGGWSLGRWTHDGI [CPXM2] | 2.49 ± 0.82 | 2.69 ± 0.16
74 | YETESETESEIESETDFETEPETA [GNAS] | 5.2 ± 0.17 | 5.22 ± 0.15
75 | YFITLGTDLAQQQGGGNGQQQQAM [KCNA4] | 3.04 ± 0.18 | 2.95 ± 0.67
76 | YGLQGGMAFLDKRLQVKEHQHEEI [ATL3] | 3.06 ± 0.51 | 3.39 ± 0.65
77 | YGSFHQQYWLDGKIIAVGVIDILP [ATE1] | 3.36 ± 0.39 | 3.16 ± 0.67
78 | YHNAGTQTVPKRIPERLSIFCRDT [IQUB] | 2.51 ± 0.28 | 3.04 ± 0.8
79 | YHSPELTTPPGHGTLDNSKSMKPY [NEUROD6] | 2.87 ± 0.65 | 3.7 ± 0.67
80 | YIKTPLFNPEVAKYLKVPQDPLKF [IQUB] | 2.42 ± 0.66 | 2.57 ± 0.36
81 | YILLVTSDVLTISGTIMKIGIEAK [MCOLN1] | 3.09 ± 0.5 | 3.17 ± 0.39
82 | YIVAGSARQHALYIWEKSIGNLVK [RBBP5] | 2.22 ± 0.25 | 2.14 ± 0.47
83 | YIWEKSIGNLVKILHGTRGELLLD [RBBP5] | 2.65 ± 0.52 | 3.09 ± 0.29
84 | YLLMVTVILLPYVSKVTGWCRDRL [TMEM175] | 3.27 ± 0.62 | 3.22 ± 0.66
85 | YLRCIQSEVSFEGAYGNLKRLYDK [SMG5] | 2.61 ± 0.26 | 2.64 ± 0.34
86 | YPALREKSKKYSDVEVPASVTGYS [ADD1] | 4.16 ± 0.2 | 4.28 ± 0.25
87 | YQQQHEQQKKDLEILHQQNIHQLQ [SASS6] | 4.47 ± 0.11 | 4.6 ± 0.19
88 | YQSFVQFLQYYYQSGCLYRLRALG [TMEM120A] | 2.67 ± 0.88 | 3.22 ± 0.57
89 | YREESDSLGQDLRRLRQELLKTEA [DAPK3] | 3.85 ± 0.68 | 3.83 ± 0.31
90 | YSGGGYYLDLPGSRQGSAEALRAL [PKD2L1] | 2.5 ± 0.48 | 2.92 ± 0.89
